target: HLA-A*02:01 (Homo sapiens, UniProt P04439, D140Y/D185E/D98H/E176V/E277Q/G131W/G231S/I119V/I121R/I166T/I218V/L300P/L318F/N151K/N90K/P208A/P217A/Q86G/Q94H/R138H/R169H/T345S); assay: MHC binding assay: UV-ligand exchange with β2m ELISA (peptide exchange yield); settings: binding to HLA-A*02:01 evaluated by peptide exchange yield (UV-ligand exchange, β2m ELISA)
From the text: Candidate peptides for T cell based therapies according to the present invention were further tested for their MHC binding capacity (affinity). The individual peptide-MHC complexes were produced by UV-ligand exchange, where a UV-sensitive peptide is cleaved upon UV-irradiation, and exchanged with the peptide of interest as analyzed. Only peptide candidates that can effectively bind and stabilize the peptide-receptive MHC molecules prevent dissociation of the MHC complexes. To determine the yield of the exchange reaction, an ELISA was performed based on the detection of the light chain (β2m) of stabilized MHC complexes. The assay was performed as generally described in Rodenko et al. (Rodenko et al., 2006).
96 well MAXISorp plates (NUNC) were coated over night with 2 ug/ml streptavidin in PBS at room temperature, washed 4× and blocked for 1 h at 37° C. in 2% BSA containing blocking buffer. Refolded HLA-A*02:01/MLA-001 monomers served as standards, covering the range of 15-500 ng/ml. Peptide-MHC monomers of the UV-exchange reaction were diluted 100 fold in blocking buffer. Samples were incubated for 1 h at 37° C., washed four times, incubated with 2 ug/ml HRP conjugated anti-β2m for 1 h at 37° C., washed again and detected with TMB solution that is stopped with […]. Absorption was measured at 450 nm. Candidate peptides that show a high exchange yield (preferably higher than 50%, most preferred higher than 75%) are generally preferred for a generation and production of antibodies or fragments thereof, and/or T cell receptors or fragments thereof, as they show sufficient avidity to the MHC molecules and prevent dissociation of the MHC complexes.

Substance	Peptide exchange
1 (KLQEKIQEL; listed as Homo sapiens) [compound 1]	++++ (≥75% = ++++)
3 (RVIDDSLVVGV; listed as Homo sapiens) [compound 3]	+++ (≥50 = +++)
4 (VLFGELPAL; listed as Homo sapiens) [compound 4]	+++ (≥50 = +++)
5 (GLVDIMVHL; listed as Homo sapiens) [compound 5]	+++ (≥50 = +++)
6 (FLNAIETAL; listed as Homo sapiens) [compound 6]	++++ (≥75% = ++++)
7 (ALLQALMEL; listed as Homo sapiens) [compound 7]	+++ (≥50 = +++)
9 (SLITGQDLLSV; listed as Homo sapiens) [compound 9]	+++ (≥50 = +++)
10 (QLIEKNWLL; listed as Homo sapiens) [compound 10]	+++ (≥50 = +++)
11 (LLDPKTIFL; listed as Homo sapiens) [compound 11]	+++ (≥50 = +++)
12 (RLLDPKTIFL; listed as Homo sapiens) [compound 12]	+++ (≥50 = +++)
13 (RLHDENILL; listed as Homo sapiens) [compound 13]	+++ (≥50 = +++)
14 (YTFSGDVQL; listed as Homo sapiens) [compound 14]	+++ (≥50 = +++)
16 (SLADLSLLL; listed as Homo sapiens) [compound 16]	+++ (≥50 = +++)
17 (GLLPSAESIKL; listed as Homo sapiens) [compound 17]	++++ (≥75% = ++++)
18 (KTASINQNV; listed as Homo sapiens) [compound 18]	++ (≥20% = ++)
19 (KVFELDLVTL; listed as Homo sapiens) [compound 19]	++ (≥20% = ++)
20 (ALVEKGEFAL; listed as Homo sapiens) [compound 20]	++ (≥20% = ++)
21 (YLMDDFSSL; listed as Homo sapiens) [compound 21]	+++ (≥50 = +++)
22 (LMYPYIYHV; listed as Homo sapiens) [compound 22]	+++ (≥50 = +++)
23 (ALLSPLSLA; listed as Homo sapiens) [compound 23]	+++ (≥50 = +++)
24 (KVWSDVTPL; listed as Homo sapiens) [compound 24]	+++ (≥50 = +++)
25 (LLWGHPRVALA; listed as Homo sapiens) [compound 25]	+++ (≥50 = +++)
26 (VLDGKVAVV; listed as Homo sapiens) [compound 26]	+++ (≥50 = +++)
27 (GLLGKVTSV; listed as Homo sapiens) [compound 27]	+++ (≥50 = +++)
28 (IKVTDPQLLEL; listed as Homo sapiens) [compound 28]	++ (≥20% = ++)
29 (KMISAIPTL; listed as Homo sapiens) [compound 29]	++ (≥20% = ++)

Substance	Peptide exchange
30 (IITEVITRL; listed as Homo sapiens) [compound 30]	+++ (≥50 = +++)
31 (GLLETTGLLAT; listed as Homo sapiens) [compound 31]	+++ (≥50 = +++)
33 (TLDRNSLYV; listed as Homo sapiens) [compound 33]	++ (≥20% = ++)
34 (TLNTLDINL; listed as Homo sapiens) [compound 34]	+++ (≥50 = +++)
35 (VIIKGLEEI; listed as Homo sapiens) [compound 35]	++ (≥20% = ++)
36 (TVLQELINV; listed as Homo sapiens) [compound 36]	+++ (≥50 = +++)
37 (QIVELIEKI; listed as Homo sapiens) [compound 37]	++ (≥20% = ++)
38 (VLQQESNFL; listed as Homo sapiens) [compound 38]	++ (≥20% = ++)
39 (YLEDGFAYV; listed as Homo sapiens) [compound 39]	+++ (≥50 = +++)
40 (KIWEELSVLEV; listed as Homo sapiens) [compound 40]	+++ (≥50 = +++)
41 (IVTEIISEI; listed as Homo sapiens) [compound 41]	+++ (≥50 = +++)
42 (KQMSISTGL; listed as Homo sapiens) [compound 42]	++ (≥20% = ++)
44 (AVFNLVHVV; listed as Homo sapiens) [compound 44]	+++ (≥50 = +++)
45 (FLPVSVVYV; listed as Homo sapiens) [compound 45]	+++ (≥50 = +++)
47 (GLNGFNVLL; listed as Homo sapiens) [compound 47]	+++ (≥50 = +++)
48 (KISDFGLATV; listed as Homo sapiens) [compound 48]	+++ (≥50 = +++)
49 (KLIGNIHGNEV; listed as Homo sapiens) [compound 49]	++ (≥20% = ++)
50 (ILLSVLHQL; listed as Homo sapiens) [compound 50]	+++ (≥50 = +++)
51 (LDSEALLTL; listed as Homo sapiens) [compound 51]	++ (≥20% = ++)
52 (TIGIPFPNV; listed as Homo sapiens) [compound 52]	++ (≥20% = ++)
53 (AQHLSTLLL; listed as Homo sapiens) [compound 53]	+ (≥10% = +)
54 (YLVPGLVAA; listed as Homo sapiens) [compound 54]	+++ (≥50 = +++)
55 (HLFDKIIKI; listed as Homo sapiens) [compound 55]	+++ (≥50 = +++)
57 (TLYPGRFDYV; listed as Homo sapiens) [compound 57]	++ (≥20% = ++)
58 (HLLGEGAFAQV; listed as Homo sapiens) [compound 58]	+++ (≥50 = +++)
59 (ALADGIKSFLL; listed as Homo sapiens) [compound 59]	+++ (≥50 = +++)

The next lines start with the values.

Peptide exchange	Substance
+++ (≥50 = +++)	60 (YLFSQGLQGL; listed as Homo sapiens) [compound 60]
+++ (≥50 = +++)	61 (ALYPKEITL; listed as Homo sapiens) [compound 61]
+++ (≥50 = +++)	62 (SLVENIHVL; listed as Homo sapiens) [compound 62]
+++ (≥50 = +++)	63 (KLLPMVIQL; listed as Homo sapiens) [compound 63]
++ (≥20% = ++)	64 (SLYAGSNNQV; listed as Homo sapiens) [compound 64]
++ (≥20% = ++)	65 (SLSEKSPEV; listed as Homo sapiens) [compound 65]
++ (≥20% = ++)	66 (AMFPDTIPRV; listed as Homo sapiens) [compound 66]
+++ (≥50 = +++)	67 (FLIENLLAA; listed as Homo sapiens) [compound 67]
+++ (≥50 = +++)	68 (QLMNLIRSV; listed as Homo sapiens) [compound 68]
++ (≥20% = ++)	69 (LKVLKADVVL; listed as Homo sapiens) [compound 69]
++ (≥20% = ++)	70 (GLTEKTVLV; listed as Homo sapiens) [compound 70]
++ (≥20% = ++)	71 (HMSGKLTNV; listed as Homo sapiens) [compound 71]
++ (≥20% = ++)	72 (VLSTRVTNV; listed as Homo sapiens) [compound 72]
++ (≥20% = ++)	74 (GLAFLPASV; listed as Homo sapiens) [compound 74]
+++ (≥50 = +++)	75 (ALLDGALQL; listed as Homo sapiens) [compound 75]
+++ (≥50 = +++)	76 (FTAEFLEKV; listed as Homo sapiens) [compound 76]
+++ (≥50 = +++)	77 (ALYGNVQQV; listed as Homo sapiens) [compound 77]
++ (≥20% = ++)	79 (TVLEEIGNRV; listed as Homo sapiens) [compound 79]
+++ (≥50 = +++)	80 (VLTGQVHEL; listed as Homo sapiens) [compound 80]
++ (≥20% = ++)	81 (ILAEEPIYI; listed as Homo sapiens) [compound 81]
+++ (≥50 = +++)	82 (ILAEEPIYIRV; listed as Homo sapiens) [compound 82]
++ (≥20% = ++)	83 (GLLENSPHL; listed as Homo sapiens) [compound 83]

Reference: US10745460B2, “Peptides and combination of peptides for use in immunotherapy against various tumors” (Immatics Biotechnologies GmbH, priority 2015, dated 2020)
